Biological target: N-terminally GST-tagged human GBF1 (containing the Y828A mutation that confers BFA resistance) (human)
Experiment: negative staining electron microscopy; purified GST-GBF1 on glow-discharged carbon grids, washed with 20 mM Bis-Tris pH 7.0, 50 mM NaCl, 1 mM DTT, stained with 1% uranyl formate; 2D class averages from 81,522 particles, compared with AlphaFold-predicted monomers

stoichiometry N: 2
Substance: N-terminally GST-tagged human GBF1 (containing the Y828A mutation that confers BFA resistance) (natural protein)
